Reference: patent US20260070983A1 (Eli Lilly, published 2026)

Molecular target: human PD-1-ECD-His (human)
Assay: SPR (Biacore), 37 °C

human PD-1-ECD-His (human), sequence (chain, as listed by the source): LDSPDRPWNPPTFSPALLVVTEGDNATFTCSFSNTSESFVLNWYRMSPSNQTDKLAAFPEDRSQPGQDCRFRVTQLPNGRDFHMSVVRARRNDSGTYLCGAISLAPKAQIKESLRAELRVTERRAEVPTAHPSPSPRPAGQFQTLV

Kd: 2.29 nM
koff: 0.000701 s⁻¹
kon: 307000 M⁻¹ s⁻¹
B1: peresolimab (antibody, V domains shown)
VH: QVQLVQSGAEVKKPGASVKVSCKVSGYSLSKYDMSWVRQAPGKGLEWMGIIYTSGYTDYAQKFQGRVTMTEDTSTDTAYMELSSLRSEDTAVYYCATGNPYYTNGFNSWGQGTLVTVSS
VL: DIQMTQSPSSLSASVGDRVTITCQASQSPNNLLAWYQQKPGKAPKLLIYGASDLPSGVPSRFSGSGSGTDFTLTISSLQPEDFATYYCQNNYYVGPVSYAFGGGTKVEIK
